# According to the DeepSol protein solubility set:
# Assay: soluble on expression in E. coli; label from the status in PepcDB or PDB records
row,Sequence,soluble on expression in E. coli
1,MANLFKLGAENIFLGRKAATKEEAIRFAGEQLVKGGYVEPEYVQAMLDREKLTPTYLGESIAVPHGTVEAKDRVLKTGVVFCQYPEGVRFGEEEDDIARLVIGIAARNNEHIQVITSLTNALDDESVIERLAHTTSVDEVLELLAGRK,soluble
2,DVTNAEKLVYKYTNIAHSANPMYEAPSITDGKIFFNRKFKTPSGKEAACASCHTNNPANVGKNIVTGKEIPPLAPRVNTKRFTDIDKVEDEFTKHCNDILGADCSPSEKANFIAYLLTETKPTK,soluble
3,MGSDKIHHHHHHVQVVSISSLKGGVGKTSVTTGLASAALAAGIPTLVVDLDPHADASTALGVQPDEQLDIGRMLKSPRRARLSQNVVTSGWVARENYNGARPAVLDVAVGSAYTGIYDRPDLGRRDLRRLSAVLAGTDKYQLILVDCPPSLNGLTRMAWSASDKVALVAEPGLFSVAGTERTMRAIQLFRQEFAPNLSPAGIIANRVRSGSSEHAFRLAEMQSMFGELLLTPYIPEQANWQQIQGAAHSVHHWPGDSAKNAASLFNTLLDNLMASNDAGSAGALRERSLR,not soluble
4,MPDQPLNQDGFPTASKGVEPDNLPDRVLVDGLKPKHQQLREILEEICTTQLQPGDMLPGERILEEKYGVSRITVRRAIGDLVASGRLKRARGKGTFVAHSPLISRLHLASFSAEMAAQKLSATSRILSSSRGPAPDDIADFFGTDRAAQHITLRRLRLGNGRPYAIDNGWYNSEFAPDLLENDVYNSVYSILDRVYGVPVTQAEQTVTAVAADEDTARLLDVTPGAPLLRILRQSLSGDKPVEWCVSLYRTDRYSLKTLVTRSEDL,soluble
5,VEVESFLVHPGDLLQLRCRLRDDVQSINWLRDGVQLAESNRTRITGEEVEVQDSVPADSGLYACVTSSPSGSDTTYFSVNVSDALP,soluble
6,MGKEYVVIGLGRFGGSIVRELNALDMDVMAIDHDENRVNEYSDIATHAVVADTTDEAVMKSLGIRNFDHVIVAIGENIQSSTLTTLILKELGVKKVTAKAQNDYHAKILNKIGADTVVHPERDMGRRIAHNVASASVLDYLELADEHSIVELKATEKMAGQSIIDLDIRAQYGINIIAIKRGKEFIISPNPNINLEIGDILIMIGHDNDLNRFEKNIATR,not soluble
7,MGSDKIHHHHHHMEKSIQDTIHGVIKLEDWMVEIVDTPQFQRLRRINQLGFANLVYPGANHTRFEHSLGVMHVTRILQERMGFDDVVVAAALLHDVGHAPFSHGSERLLEKYASYNHETISKVVRGELKDVLKNLGFRISEIEAIVTGKRRSVVNGEIDADRMDYLVRDSHYTGVAYGVFDIYRLIDKIKFDGAVVIEQGGVKAAESLLISRFLMYPTVYFHHVCRIARKMYERAMERIIEAGFEAENLLEMDDVDAMMLLKEKERETYDRLNNRRLFKRAIYVSRRSLDFREVMRTSERRAEREVAEMAGVDERYVIVDIPPVEEMRESGVMVDTESGLKPLEEVSPLVKALKDAAVENWRLGVYTDRRFVDKVGKAAADYFGIEKVVQKSLDEIFPQ,not soluble
8,MSLRVMIVDDHGTNRELCRFILAHIASHIDTFEDGQQAIDAMREMEILPDVILLDVMMPIKDGFVTAKEIRQAFVKHHIPIIFLTVLDDRDSFEKCLALGDDFILKPVERSVLIAKVQAHYRIVKMHNEVMEQRDELRHFREQVQYDYAISESIFTNLMEEMCHQVEHIFGIHYISTPSTIFNGDLIVVANRPHGGVYVMIADATGHGLPAAISTIPATRTFFSTAQKGLSLGEMVIELNHSLERFLPVGMMLAASVFEVRANGFEISWWGGGLPEAYLLDHHGNIVSRLISNHMPLGVLPSNEFEADVQHFKLEPNQKLVCYTDGIIEAMNEQGEYFGQERLEHVLTKAYSEALIPTLYDAVKKFSNRGKGDDLSILTMTFPITNSNSSDKALPKVVLSCIPLQTELHFPADVLRKISLMNEVRRFLTGIVSGGEDLDLLCSVLSELFANAIEHGLLELDSSLKETPDGFFEFYQLRDKRLKTLPEYHWLILKVNYQPDKQRIEIDLEHSGKGFDCQALKDASNQKSYGRGILLATQLCESLEYSNQGRRVTAVYSFARKDTLHYSLPSEGHHHHHH,soluble
9,MASNFKKANMASSSQRKRMSPKPELTEEQKQEIREAFDLFDADGTGTIDVKELKVAMRALGFEPKKEEIKKMISEIDKEGTGKMNFGDFLTVMTQKMSEKDTKEEILKAFKLFDDDETGKISFKNLKRVAKELGENLTDEELQEMIDEADRDGDGEVSEQEFLRIMKKTSLY,soluble
10,MICNCFLLIIVTLVISNCDGICLNHEGWGNVGSVFTDPLCNVWCEIKLCGPGQCIEDPMTTAPARCVCEKCYRDNSGNAVYPGGNNDYQQQAQMNRERQLDRQYNRQLRQQNRMNKAWQRGWQ,not soluble
11,MSSTKRPASRADEITQELVRMIQLADARRIAKLPTEMELAAQLGISRPVIRESLSRLESLNMVTRRQGSGLYIVAPEKRSPEALVLLEQSAPLSPRSIAEAMSVRAILELETGRLAALNHRQVDLDRMAAEIERLAATGARGLEAAEADEAFHRALSDAAGNVTLSQVLDLFLRLSWRRRVEYFSQPKLGKQSIIEHQEILNAVASGDPDAVSTAIRTHLNSAERFWDSKYVKKKS,not soluble
12,MKEKEKIYRHLTEEEISVLEGNYCQCADWTMVEVADGFDANRCLHVMFSGQIRIGSTRGSHLLPGGLHVPTGINIARLHNCIVGDEVVIFHVNSYLANYRIGDYTRIENIDTIAVTESTSFGNGVEVTVLNETGGREVTITDNLTAQTAYLMAMYRHDKVLTESLAAMARAYAESRRSDMGAIGSHVVIHGCNTIENVCIGDYTEITGASHLCNGSINSKKEAPVSVGYNVVCRDFILCSGSSVTDGATVSHCFVGQGTHLGHLFSAHDSLFFANCQGENGEACAVFAGPYTVSMHK,not soluble
13,MGSDKIHHHHHHMTLPPPRPPALCRGVVGLPLETQIDLTASNLAAVADLAAQYGLLIYLEALSWTPLNTIDRQLRTIEIANRDNIRLVIDFWHCYTSGDTPKHIARLHKDIIYGVHICDSLAYAGGVPDENMLRDVPTGNGVLNLKEWVDAVKSTGYDGWWSCELFCRRQHQENSYDVARSLNALMRDLVGA,not soluble
14,MGSDKIHHHHHHMPLRGGVTCRVPSGMWMVPPHCGVWVPGGMLHSNVATANARLFFLFIEPGAADLPNRCCTLSLSPLVRELIIELADQSEVATADSELMTTLLLSALSRMPVEHLHLPLTDEPRLARIASELADDPSDRSTMAQWARRVAMSENSLARLVQHQTGLTFGRWRQQLQLIIAIRSLASGATVQQVSGDLGYESVSAFITMFKKALGTSPSRYLRNFDR,not soluble
15,MAHHHHHHMQTGPFAAVTRVPDHVRNMILNEIASENIWLFDRGRCEAVTVGDMRSSSFSIPMAESPPAVGCELDNNEHLLLYDLMRVRNGQVMFENDHFSRIRQNCILTAPTACDAANVSEDEDLGKLSTYIEGVRSTTRDFIKCNPWENGDVNLKFVTWVLPSQLSDVSTAERRSELLRTLSYAVYYVTSFFPPEDWYEEGTRYAMLYDAQRHTPNAKILQVPLRERAKALQQTTNAFEVLLVSDNRRHYLVPEGSRSNYLIVSGDESLLCSLEEDILVGITLRVARRAAACARLPPLRHRKLVLGDICLAKSIAMLGTSPGVLPIKEIQVFYDEESKQNFLLAMEDYMQDKDEEIQRAVINVRGRILNDDGLLRLESPSCDTLKRLRAAYEAEALL,not soluble
16,MISAFDIFKIGIGPSSSHTVGPMNAGKCFIDRLIDSGDLPRTTRITVDLYGSLSLTGKGHATDTAVIMGLAGNTPQDVNIDSIPAFIQEVARSSRLSVAGGAHVVDFPVADSIFFHAETLARHENGMRITAWNGQAPLLHKTYYSIGGGFIVEEERFGQSHDVEKSVPYDFHSASELLTLCERQGLSVSGLMMQNELALRSKEQIDAGFARIWQVMATGIERGMNTEGVLPGPLNVPRRAVALRRLLVSSDNLSRDPMNVIDWINMFALAVSEENAAGGRVVTAPTNGACGIIPAVLAYYDKFRRPVNANSIARYLLSAGAIGMLYKMNASISGAEVGCQGEVGVACSMAAAGLTELLGGSPAQVCIAAEIAMEHNLGLTCDPVAGQVQIPCIERNAINAVKAVNAARMALRRTSEPRVSLDKVIETMYETGKDMNDKYRETSRGGLAIKVVCG,not soluble
